Values of other authors as cited in PMC6929323.

Target: UFD1L-NPLOC4 (Homo sapiens) (UniProt Q92890)
Test: ITC

UniProt Q92890, sequence (Q92890 whole entry, chain 1 of 2): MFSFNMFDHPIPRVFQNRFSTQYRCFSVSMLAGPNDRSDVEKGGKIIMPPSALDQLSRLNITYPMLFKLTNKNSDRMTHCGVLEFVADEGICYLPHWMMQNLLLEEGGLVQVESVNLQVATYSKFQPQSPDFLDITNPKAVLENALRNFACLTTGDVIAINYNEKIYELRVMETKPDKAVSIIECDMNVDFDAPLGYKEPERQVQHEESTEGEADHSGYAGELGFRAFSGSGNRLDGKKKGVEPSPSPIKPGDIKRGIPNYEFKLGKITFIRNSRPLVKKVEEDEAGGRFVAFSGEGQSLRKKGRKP
UniProt Q92890, sequence (Q8TAT6 2-608, chain 2 of 2, further chain): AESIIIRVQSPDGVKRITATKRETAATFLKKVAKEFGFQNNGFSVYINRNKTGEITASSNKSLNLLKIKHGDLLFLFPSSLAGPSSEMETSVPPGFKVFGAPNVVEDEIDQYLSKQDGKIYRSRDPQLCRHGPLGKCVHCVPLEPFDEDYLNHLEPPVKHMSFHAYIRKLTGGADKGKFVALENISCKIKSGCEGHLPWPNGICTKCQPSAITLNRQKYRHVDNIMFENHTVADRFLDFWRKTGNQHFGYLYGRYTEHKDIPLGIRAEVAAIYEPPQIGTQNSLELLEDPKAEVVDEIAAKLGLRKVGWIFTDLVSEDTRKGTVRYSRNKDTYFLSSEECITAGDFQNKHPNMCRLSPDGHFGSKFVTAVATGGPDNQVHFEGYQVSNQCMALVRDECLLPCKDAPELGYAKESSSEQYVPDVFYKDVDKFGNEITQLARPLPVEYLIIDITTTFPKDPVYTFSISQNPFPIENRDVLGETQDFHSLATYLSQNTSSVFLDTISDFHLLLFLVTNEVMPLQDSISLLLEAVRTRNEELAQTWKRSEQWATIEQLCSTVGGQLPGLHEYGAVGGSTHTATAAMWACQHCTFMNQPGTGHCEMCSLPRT

Kd: 1700 nM
Substance: p97 (from UniProt P55072)
